We go through one molecule from US20110212162A1 (SANFORD BURNHAM MEDICAL RESEARCH INSTITUTE, published 2011).

The target in this test is T1, chemokine receptor CXCR4, expressed on transfected 293T cells (UniProt P61073 1-352, limits assumed).
T1 construct: whole, on cells; also called CXCR4 receptor
Put plainly: phage binding to transfected 293T cells; bound phage rescued and titrated. As for the experimental part: Briefly, plasmid (10 μg) was mixed with 900 μl of serumfree DMEM and 50 μl of FuGene and incubated for 15 min at room temperature before adding the mixture to the cells. The cells were detached using EDTA after 48 hrs post transfection and washed with PBS containing 1% BSA. Phage (5×10⁹ pfu) were incubated with the transfected cells and bound phage were rescued and titrated. For competitive binding assay, the cognate peptide (150 μg/ml) or antibody (50 μg/ml) was added during incubating of the phage with cells. Targeted proapoptotic peptide treatment of tumor-bearing mice Prostate cancer model. Orthotopic xenografted prostate tumors were established by injecting 1×10⁶ PPC1 human prostate cancer cells into the mouse prostate. Fifteen days post inoculation, the mice were intravenously injected with D(KLAKLAK)₂-[…] (SEQ ID NO:41), an equimolar mixture of D(KLAKLAK)₂ (SEQ ID NO:19) and […] (SEQ ID NO:6), or PBS. Biweekly injections of 100 μg/dose/mouse were given for three weeks. Melanoma model. Nude BALB/c mice were subcutaneously injected with 1×10⁶ C8161 human melanoma cells. Treatment started when mean tumor volumes reached about 100 mm3. Mice with size-matched tumors were randomized into three groups. […] The mice were monitored for weight loss, and tumors were dissected and weighed at the termination of the experiment. […]

T1 sequence (P61073 whole entry): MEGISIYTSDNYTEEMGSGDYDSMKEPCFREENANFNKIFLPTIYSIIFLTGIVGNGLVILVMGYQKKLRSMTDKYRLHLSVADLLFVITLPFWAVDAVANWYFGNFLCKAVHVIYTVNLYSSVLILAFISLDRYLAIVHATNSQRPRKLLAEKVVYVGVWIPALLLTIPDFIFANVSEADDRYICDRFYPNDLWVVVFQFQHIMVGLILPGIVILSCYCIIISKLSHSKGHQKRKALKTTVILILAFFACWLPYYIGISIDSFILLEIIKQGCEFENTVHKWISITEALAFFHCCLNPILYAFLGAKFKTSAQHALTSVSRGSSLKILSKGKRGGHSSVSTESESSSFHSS

Take CGNKRTRGC [LyP-1 phage (T7 phage displaying the peptide CGNKRTRGC, SEQ ID NO:16)]: the binding result is given as “no binding (tested: 5x10^9 pfu phage)”.
